Measured values from PMC9584538 (Cell reports, 2022).
Values joined by “and” are separate entries in the source; they are usually repeats but may differ in a detail not shown here. Identical values can stand only once.

T1: PARL-protease-activated Skd3 (human CLPB), wild type (human, UniProt Q9H078 127-707)
T1 sequence (looked up): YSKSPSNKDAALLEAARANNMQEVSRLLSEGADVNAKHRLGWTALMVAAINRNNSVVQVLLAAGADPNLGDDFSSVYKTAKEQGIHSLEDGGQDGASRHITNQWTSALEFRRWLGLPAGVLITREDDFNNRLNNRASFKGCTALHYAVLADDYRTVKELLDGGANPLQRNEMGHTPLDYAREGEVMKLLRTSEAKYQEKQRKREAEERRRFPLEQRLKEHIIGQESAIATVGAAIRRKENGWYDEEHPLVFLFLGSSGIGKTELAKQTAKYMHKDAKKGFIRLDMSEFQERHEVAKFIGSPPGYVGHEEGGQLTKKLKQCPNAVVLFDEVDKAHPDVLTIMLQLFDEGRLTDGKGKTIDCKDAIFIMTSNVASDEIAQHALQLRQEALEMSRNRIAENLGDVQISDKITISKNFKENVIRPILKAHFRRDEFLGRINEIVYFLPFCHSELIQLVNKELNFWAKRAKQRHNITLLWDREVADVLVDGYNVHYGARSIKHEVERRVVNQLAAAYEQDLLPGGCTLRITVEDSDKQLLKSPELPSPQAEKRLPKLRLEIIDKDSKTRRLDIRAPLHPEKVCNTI


Columns and labels:
[1] = target: T1, PARL-protease-activated Skd3 (human …); test: FRET or BRET
[2] = target: the molecule itself; test: SEC

Binder | binding result [1] | stoichiometry N [2]
_(PARL)Skd3^A591V (MGCA7-linked variant) (enzyme, human, UniProt Q9H078 127-707, looked up) YSKSPSNKDAALLEAARANNMQEVSRLLSEGADVNAKHRLGWTALMVAAINRNNSVVQVLLAAGADPNLGDDFSSVYKTAKEQGIHSLEDGGQDGASRHITNQWTSALEFRRWLGLPAGVLITREDDFNNRLNNRASFKGCTALHYAVLADDYRTVKELLDGGANPLQRNEMGHTPLDYAREGEVMKLLRTSEAKYQEKQRKREAEERRRFPLEQRLKEHIIGQESAIATVGAAIRRKENGWYDEEHPLVFLFLGSSGIGKTELAKQTAKYMHKDAKKGFIRLDMSEFQERHEVAKFIGSPPGYVGHEEGGQLTKKLKQCPNAVVLFDEVDKAHPDVLTIMLQLFDEGRLTDGKGKTIDCKDAIFIMTSNVASDEIAQHALQLRQEALEMSRNRIAENLGDVQISDKITISKNFKENVIRPILKAHFRRDEFLGRINEIVYFLPFCHSELIQLVNKELNFWAKRVKQRHNITLLWDREVADVLVDGYNVHYGARSIKHEVERRVVNQLAAAYEQDLLPGGCTLRITVEDSDKQLLKSPELPSPQAEKRLPKLRLEIIDKDSKTRRLDIRAPLHPEKVCNTI | binds | 6 and 12
_(PARL)Skd3^K387A (Walker A) (enzyme, human, UniProt Q9H078 127-707, looked up) YSKSPSNKDAALLEAARANNMQEVSRLLSEGADVNAKHRLGWTALMVAAINRNNSVVQVLLAAGADPNLGDDFSSVYKTAKEQGIHSLEDGGQDGASRHITNQWTSALEFRRWLGLPAGVLITREDDFNNRLNNRASFKGCTALHYAVLADDYRTVKELLDGGANPLQRNEMGHTPLDYAREGEVMKLLRTSEAKYQEKQRKREAEERRRFPLEQRLKEHIIGQESAIATVGAAIRRKENGWYDEEHPLVFLFLGSSGIGATELAKQTAKYMHKDAKKGFIRLDMSEFQERHEVAKFIGSPPGYVGHEEGGQLTKKLKQCPNAVVLFDEVDKAHPDVLTIMLQLFDEGRLTDGKGKTIDCKDAIFIMTSNVASDEIAQHALQLRQEALEMSRNRIAENLGDVQISDKITISKNFKENVIRPILKAHFRRDEFLGRINEIVYFLPFCHSELIQLVNKELNFWAKRAKQRHNITLLWDREVADVLVDGYNVHYGARSIKHEVERRVVNQLAAAYEQDLLPGGCTLRITVEDSDKQLLKSPELPSPQAEKRLPKLRLEIIDKDSKTRRLDIRAPLHPEKVCNTI | binds | –
_(PARL)Skd3^R408G (MGCA7-linked variant) (enzyme, human, UniProt Q9H078 127-707, looked up) YSKSPSNKDAALLEAARANNMQEVSRLLSEGADVNAKHRLGWTALMVAAINRNNSVVQVLLAAGADPNLGDDFSSVYKTAKEQGIHSLEDGGQDGASRHITNQWTSALEFRRWLGLPAGVLITREDDFNNRLNNRASFKGCTALHYAVLADDYRTVKELLDGGANPLQRNEMGHTPLDYAREGEVMKLLRTSEAKYQEKQRKREAEERRRFPLEQRLKEHIIGQESAIATVGAAIRRKENGWYDEEHPLVFLFLGSSGIGKTELAKQTAKYMHKDAKKGFIGLDMSEFQERHEVAKFIGSPPGYVGHEEGGQLTKKLKQCPNAVVLFDEVDKAHPDVLTIMLQLFDEGRLTDGKGKTIDCKDAIFIMTSNVASDEIAQHALQLRQEALEMSRNRIAENLGDVQISDKITISKNFKENVIRPILKAHFRRDEFLGRINEIVYFLPFCHSELIQLVNKELNFWAKRAKQRHNITLLWDREVADVLVDGYNVHYGARSIKHEVERRVVNQLAAAYEQDLLPGGCTLRITVEDSDKQLLKSPELPSPQAEKRLPKLRLEIIDKDSKTRRLDIRAPLHPEKVCNTI | binds | 12
_(PARL)Skd3^N496K (SCN-linked variant, sensor-1) (enzyme, human, UniProt Q9H078 127-707, looked up) YSKSPSNKDAALLEAARANNMQEVSRLLSEGADVNAKHRLGWTALMVAAINRNNSVVQVLLAAGADPNLGDDFSSVYKTAKEQGIHSLEDGGQDGASRHITNQWTSALEFRRWLGLPAGVLITREDDFNNRLNNRASFKGCTALHYAVLADDYRTVKELLDGGANPLQRNEMGHTPLDYAREGEVMKLLRTSEAKYQEKQRKREAEERRRFPLEQRLKEHIIGQESAIATVGAAIRRKENGWYDEEHPLVFLFLGSSGIGKTELAKQTAKYMHKDAKKGFIRLDMSEFQERHEVAKFIGSPPGYVGHEEGGQLTKKLKQCPNAVVLFDEVDKAHPDVLTIMLQLFDEGRLTDGKGKTIDCKDAIFIMTSKVASDEIAQHALQLRQEALEMSRNRIAENLGDVQISDKITISKNFKENVIRPILKAHFRRDEFLGRINEIVYFLPFCHSELIQLVNKELNFWAKRAKQRHNITLLWDREVADVLVDGYNVHYGARSIKHEVERRVVNQLAAAYEQDLLPGGCTLRITVEDSDKQLLKSPELPSPQAEKRLPKLRLEIIDKDSKTRRLDIRAPLHPEKVCNTI | binds | 6
